# Reference: IntAct's records for PubMed 23222643
# B1: Formin-like protein 3 (Mus musculus), Q6ZPF4-1 (parent)
# chain: MGNLESTDGGPGEPPSVPLLLPPGKTPMPEPCELEERFALVLSSMNLPPDKARLLRQYDNEKKWDLICDQERFQVKNPPHTYIQKLQSFLDPNVTRKKFRRRVQESTKVLRELEISLRTNHIGWVREFLNDENKGLDVLVDYLSFAQCSVMFDFEGLESGDDGAFDKLRSWSRSIEDLQPPNALSAPFTNSLARSARQSVLRYSTLPGRRALKNSRLVSQKDDVHVCILCLRAIMNYQYGFNLVMSHPHAVNEIALSLNNKNPRTKALVLELLAAVCLVRGGHEIILAAFDNFKEVCKELHRFEKLMEYFRNEDSNIDFMVACMQFINIVVHSVEDMNFRVHLQYEFTKLGLEEFLQKSRHTESEKLQVQIQAYLDNVFDVGGLLEDAETKNVALEKVEELEEHVSHLTEKLLDLENENMMRVAELEKQLLQREKELESIKETYENTSNQVHTLRRLIKEKEEAFQRRCHLEPSARGLESMGGEALARVGPTELTEGIPPSDLDLLAPAPPTEETLPLPPPPAPPLPPPPPPLPDKCPPAPPLPGAAPSVVLTVGLSAIRIKKPIKTKFRLPVFNWTALKPNQINGTVFSELDDEKILEDLDLDRFEELFKTKAQGPALDLICSKNKTAQKAASKVTLLEANRAKNLAITLRKAGRSAEEICRAIHTFDLQTLPVDFVECLMRFLPTEAEVKLLRQYERERQPLEELAAEDRFMLLFSKVERLTQRMAGMAFLGNFQDNLQMLTPQLNAIIAASASVKSSQKLKQMLEIILALGNYMNSSKRGAVYGFKLQSLDLLLDTKSTDRKMTLLHFIALTVKEKYPELANFWQELHFVEKAAAVSLENVLLDVKELGRGMELIRRECSIHDNSVLRNFLSTNEGKLDKLQRDAKTAEEAYNAVVRYFGESPKTTPPSVFFPVFVRFIRSYKEAEQENEARKKQEEVMREKQLAQEAKKLDAKTPSQRNKWQQQELIAELRRRQAKEHRPVYEGKDGTIEDIITVLKSVPFTARTAKRGSRFFCDAAHHDESNC
# Variants of: B1
# Conditions: with acts_rabit ACTA1, P68135
row,effect of a mutation on the interaction,Variant
1,decreasing interaction strength,I649A
